Test results: patent publication US20060084085

Tests used:
[1] = biological target: T1, Ku70 peptide 16 (amino acids 325-341)
T1 chain: RQIILEKEETEELKRFD

[2] = biological target: T2, Ku70 peptide 29 (amino acids 541-562)
T2 chain: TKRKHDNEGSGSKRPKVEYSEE

[3] = biological target: T3, peptide 29 variant that retained K542 (KRRR)
T3 chain: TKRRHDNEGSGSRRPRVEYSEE

[4] = biological target: T4, peptide 29 variant that retained K553 (RRKR)
T4 chain: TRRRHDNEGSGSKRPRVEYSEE

[5] = biological target: recombinant Ku70/80 complex, P13010
Chain of recombinant Ku70/80 complex, P13010 (chain, as listed by the source, chain 1 of 2): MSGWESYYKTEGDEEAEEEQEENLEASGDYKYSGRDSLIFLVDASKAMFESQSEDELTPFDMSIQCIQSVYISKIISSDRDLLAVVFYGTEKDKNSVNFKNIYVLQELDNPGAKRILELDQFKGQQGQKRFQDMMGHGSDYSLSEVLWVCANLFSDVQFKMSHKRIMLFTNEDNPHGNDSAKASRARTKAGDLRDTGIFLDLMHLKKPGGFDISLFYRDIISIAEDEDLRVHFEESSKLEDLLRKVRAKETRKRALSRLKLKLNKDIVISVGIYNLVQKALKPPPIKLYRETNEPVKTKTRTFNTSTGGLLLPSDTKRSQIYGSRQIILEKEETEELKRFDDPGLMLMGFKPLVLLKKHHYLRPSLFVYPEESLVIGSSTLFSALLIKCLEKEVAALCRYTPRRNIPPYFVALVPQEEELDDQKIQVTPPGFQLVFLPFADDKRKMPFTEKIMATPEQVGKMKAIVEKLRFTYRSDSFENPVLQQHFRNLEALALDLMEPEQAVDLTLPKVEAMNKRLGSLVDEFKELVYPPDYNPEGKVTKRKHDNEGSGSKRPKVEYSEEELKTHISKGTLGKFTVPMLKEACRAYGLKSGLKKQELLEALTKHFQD
Chain of recombinant Ku70/80 complex, P13010 (P13010 whole entry, chain 2 of 2, the tested form may be a part): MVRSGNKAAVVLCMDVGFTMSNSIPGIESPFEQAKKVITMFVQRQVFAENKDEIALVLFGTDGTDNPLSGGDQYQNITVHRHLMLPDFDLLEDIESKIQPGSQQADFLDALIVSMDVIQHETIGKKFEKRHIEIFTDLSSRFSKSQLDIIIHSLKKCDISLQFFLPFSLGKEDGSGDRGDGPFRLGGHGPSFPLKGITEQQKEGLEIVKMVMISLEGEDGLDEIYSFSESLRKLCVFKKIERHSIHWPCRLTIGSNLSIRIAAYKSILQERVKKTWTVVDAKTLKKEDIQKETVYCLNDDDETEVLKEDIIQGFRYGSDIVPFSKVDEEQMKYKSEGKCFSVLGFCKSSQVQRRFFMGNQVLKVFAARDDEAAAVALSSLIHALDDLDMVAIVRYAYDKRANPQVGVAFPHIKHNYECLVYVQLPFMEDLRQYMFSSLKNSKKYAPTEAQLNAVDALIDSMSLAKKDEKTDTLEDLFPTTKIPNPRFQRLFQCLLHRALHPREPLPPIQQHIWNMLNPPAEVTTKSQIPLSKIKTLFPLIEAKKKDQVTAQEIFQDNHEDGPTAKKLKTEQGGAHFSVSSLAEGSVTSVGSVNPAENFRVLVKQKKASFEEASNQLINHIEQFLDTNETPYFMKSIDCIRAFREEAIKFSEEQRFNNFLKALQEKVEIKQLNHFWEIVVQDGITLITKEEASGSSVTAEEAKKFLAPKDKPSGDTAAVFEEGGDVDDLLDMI

[6] = biological target: T5, Ku70 peptide 15 (amino acids 310-322)
T5 chain: LLLPSDTKRSQIY

[7] = biological target: T6, Ku70 peptide 3 (amino acids 44-58)
T6 chain: ASKAMFESQSEDELT

[8] = biological target: T7, Ku70 peptide 8 (amino acids 157-173)
T7 chain: VQFKMSHKRIMLFTNED

[9] = biological target: T8, acetylated Ku70 K539 peptide DYNPEGK-AcVTKRKC
T8 chain: DYNPEGKVTKRKC

[10] = biological target: T9, acetylated Ku70 K542 peptide PEGKVTK-AcRKHDNC
T9 chain: PEGKVTKRKHDNC

[11] = biological target: acetylated Ku70-K331 peptide

B1: recombinant histone acetyltransferase (HAT) domain of CBP (protein)
chain: LEALYRQDPESLPFRQPVDPQLLGIPDYFDIVKNPMDLSTIKRKLDTGQYQEPWQYVDDVWLMFNNAWLYNRKTSRVYKFCSKLAEVFEQEIDPVMQSLGYCCGRKYEFSPQTLCCYGKQLCTIPRDAAYYSYQNRYHFCEKCFTEIQGENVTLGDDPSQPQTTISKDQFEKKKNDTLDPEPFVDCKECGRKMHQICVLHYDIIWPSGFVCDNCLKKTGRPRKENKFSAKRLQTTRLGNHLEDRVNKFLRRQNHPEAGEVFVRVVASSDKTVEVKPGMKSRFVDSGEMSESFPYRTKALFAFEEIDGVDVCFFGMHVQEYGSDCPPPNTRRVYISYLDSIHFFRPRCLRTAVYHEILIGYLEYVKKLGYVTGHIWACPPSEGDDYIFHCHPPDQKIPKPKRLQEWYKKMLDKAFAERIIHDYKDIFKQATEDRLTSAKELPYFEGDFWPNVLEESIKELEQEEEERKKEESTAASETTEGSQGDSKNAKKKNNKKTNKNKSSISRANKKKPSMPNVSNDLSQKLYATMEKHKEVFFVIHLHAGPVINTLPPIVDPDPLLSCDLMDGRDAFLTLARDKHWEFSSLRRSKWSTLCMLVELHTQGQDRFVYTCNECKHHVETRWHCTVCEDYDLCINCYNTKSHAHKMVKWGLGLDDEGSSQGE
- in vitro acetylation of Ku70 peptides [1]: only two (16 and 29) were strongly acetylated by both PCAF and CBP
- in vitro acetylation of Ku70 peptides [2]: only two (16 and 29) were strongly acetylated by both PCAF and CBP
- in vitro acetylation of peptide 29 variants [3]: the peptide that retained K542 (KRRR) was the preferred target of both PCAF and CBP and was acetylated to almost the same extent as the original peptide 29 (KKKK)
- in vitro acetylation of peptide 29 variants [4]: K553 (RRKR) was also weakly acetylated by PCAF and CBP
- in vitro acetylation (3H-acetyl-CoA, SDS-PAGE, autoradiography) [5]: a strongly labeled band corresponding to the size of Ku70 was observed in each of the complete acetyltransferase reactions; Based on the intensity of the bands, CBP has the strongest preference for Ku70

B2: recombinant histone acetyltransferase (HAT) domain of PCAF (protein)
chain: MLEEEVYSQNSPIWDQDFLSASSRTSQLGIQTVINPPPVAGTISYNSTSSSLEQPNAGSSSPACKASSGLEANPGEKRKMTDSHVLEEAKKPRVMGDIPMELINEVMSTITDPAAMLGPETNFLSAHSARDEAARLEERRGVIEFHVVGNSLNQKPNKKILMWLVGLQNVFSHQLPRMPKEYITRLVFDPKHKTLALIKDGRVIGGICFRMFPSQGFTEIVFCAVTSNEQVKGYGTHLMNHLKEYHIKHDILNFLTYADEYAIGYFKKQGFSKEIKIPKTKYVGYIKDYEGATLMGCELNPRIPYTEFSVIIKKQKEIIKKLIERKQAQIRKVYPGLSCFKDGVRQIPIESIPGIRETGWKPSGKEKSKEPRDPDQLYSTLKSILQQVKSHQSAWPFMEPVKRTEAPGYYEVIRFPMDLKTMSERLKNRYYVSKKLFMADLQRVFTNCKEYNPPESEYYKCANILEKFFFSKIKEAGLIDK
- Relative Intensity of Acetylation [6]: +++
- Relative Intensity of Acetylation [1]: +++
- Relative Intensity of Acetylation [2]: +++++
- Relative Intensity of Acetylation [7]: +
- Relative Intensity of Acetylation [8]: ++
- in vitro acetylation of peptide 29 variants [3]: the peptide that retained K542 (KRRR) was the preferred target of both PCAF and CBP and was acetylated to almost the same extent as the original peptide 29 (KKKK)
- in vitro acetylation of peptide 29 variants [4]: K553 (RRKR) was also weakly acetylated by PCAF and CBP
- in vitro acetylation (3H-acetyl-CoA, SDS-PAGE, autoradiography) [5]: a strongly labeled band corresponding to the size of Ku70 was observed in each of the complete acetyltransferase reactions

B3: human SIRT1 (protein)
chain: MADEAALALQPGGSPSAAGADREAASSPAGEPLRKRPRRDGPGLERSPGEPGGAAPEREVPAAARGCPGAAAAALWREAEAEAAAAGGEQEAQATAAAGEGDNGPGLQGPSREPPLADNLYDEDDDDEGEEEEEAAAAAIGYRDNLLFGDEIITNGFHSCESDEEDRASHASSSDWTPRPRIGPYTFVQQHLMIGTDPRTILKDLLPETIPPPELDDMTLWQIVINILSEPPKRKKRKDINTIEDAVKLLQECKKIIVLTGAGVSVSCGIPDFRSRDGIYARLAVDFPDLPDPQAMFDIEYFRKDPRPFFKFAKEIYPGQFQPSLCHKFIALSDKEGKLLRNYTQNIDTLEQVAGIQRIIQCHGSFATASCLICKYKVDCEAVRGDIFNQVVPRCPRCPADEPLAIMKPEIVFFGENLPEQFHRAMKYDKDEVDLLIVIGSSLKVRPVALIPSSIPHEVPQILINREPLPHLHFDVELLGDCDVIINELCHRLGGEYAKLCCNPVKLSEITEKPPRTQKELAYLSELPPTPLHVSEDSSSPERTSPPDSSVIVTLLDQAAKSNDDLDVSESKGCMEEKPQEVQTSRNVESIAEQMENPDLKNVGSSTGEKNERTSVAGTVRKCWPNRVAKEQISRRLDGNQYLFLPPNRYIFHGAEVYSDSEDDVLSSSSCGSNSDSGTCQSPSLEEPMEDESEIEEFYNGLEDEPDVPERAGGAGFGTDGDDQEAINEAISVKQEVTDMNYPSNKS
- deacetylation of acetylated Ku70 peptide by recombinant SIRT1 (slot blot with pan-acetyl-lysine antibody; fluorogenic peptide assay) [9]: SIRT1 efficiently deacetylated the two lysines in the C-terminus of Ku70 that are critical for regulating Bax
- deacetylation of acetylated Ku70 peptide by recombinant SIRT1 (slot blot with pan-acetyl-lysine antibody; fluorogenic peptide assay) [10]: SIRT1 efficiently deacetylated the two lysines in the C-terminus of Ku70 that are critical for regulating Bax
- deacetylation of acetylated Ku70 peptide by SIRT1 [11]: this residue is acetylated in vivo, but is both a poor substrate of SIRT1 (FIG. 8D) and plays no apparent role in Bax-mediated apoptosis in vivo

B4: recombinant histone acetyltransferase (HAT) domain of p300 (protein)
chain: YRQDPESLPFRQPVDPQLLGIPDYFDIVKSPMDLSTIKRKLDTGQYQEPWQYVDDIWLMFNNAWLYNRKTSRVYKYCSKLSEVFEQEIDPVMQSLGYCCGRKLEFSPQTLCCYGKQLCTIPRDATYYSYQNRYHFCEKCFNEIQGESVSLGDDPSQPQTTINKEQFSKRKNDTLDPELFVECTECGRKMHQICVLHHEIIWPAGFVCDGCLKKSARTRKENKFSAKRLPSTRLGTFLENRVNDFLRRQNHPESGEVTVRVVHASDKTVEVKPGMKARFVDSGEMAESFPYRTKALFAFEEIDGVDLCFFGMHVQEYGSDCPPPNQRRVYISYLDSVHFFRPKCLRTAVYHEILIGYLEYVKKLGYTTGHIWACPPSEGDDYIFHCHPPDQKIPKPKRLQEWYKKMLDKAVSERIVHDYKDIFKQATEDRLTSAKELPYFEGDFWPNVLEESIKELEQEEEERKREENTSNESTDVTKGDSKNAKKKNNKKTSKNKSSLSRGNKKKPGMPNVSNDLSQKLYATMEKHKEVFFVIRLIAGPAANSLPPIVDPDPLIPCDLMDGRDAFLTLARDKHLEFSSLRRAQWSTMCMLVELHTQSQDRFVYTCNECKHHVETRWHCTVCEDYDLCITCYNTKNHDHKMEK
- in vitro acetylation (3H-acetyl-CoA, SDS-PAGE, autoradiography) [5]: a strongly labeled band corresponding to the size of Ku70 was observed in each of the complete acetyltransferase reactions
